Reference: patent publication US20260256782

Test system: ZF3-KRAB (MR-32054 bicistronic component) (synthetic construct)
Experiment: cell_activity
Details: 48 h, 0.5 ug/ml, combined effect with ZF9-MQ1, binding not measured directly

Chain of ZF3-KRAB (MR-32054 bicistronic component) (synthetic construct) (chain, as listed by the source): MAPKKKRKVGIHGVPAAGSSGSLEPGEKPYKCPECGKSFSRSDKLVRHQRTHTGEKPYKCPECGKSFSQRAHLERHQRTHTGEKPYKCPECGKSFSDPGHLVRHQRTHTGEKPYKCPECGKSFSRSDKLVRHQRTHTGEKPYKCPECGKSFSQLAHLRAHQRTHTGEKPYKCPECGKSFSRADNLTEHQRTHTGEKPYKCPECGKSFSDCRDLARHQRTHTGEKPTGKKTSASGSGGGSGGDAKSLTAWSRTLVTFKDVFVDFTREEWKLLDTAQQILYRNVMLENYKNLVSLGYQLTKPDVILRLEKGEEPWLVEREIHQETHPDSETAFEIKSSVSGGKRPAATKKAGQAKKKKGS

Work on “MYC upstream anchor (CTCF) ZF3 target site” yielded an activity (% MYC protein reduction) (H1975 cells) of 30 and an activity (% MYC protein reduction) (PC9 cells) of 47.
